{"source": "paper PMC7054047", "key": {"Ol1WSCP [1]": {"target": "Ol1WSCP", "experiment": "SEC"}, "Ol1WSCP [2]": {"target": "Ol1WSCP", "experiment": "SEC", "remark": "listed apart in the source"}}, "note": "Like-named read-outs stand apart in the source and are kept apart here.", "data": [{"substance": "Ol1WSCP (natural protein)", "values": [{"measurement": "stoichiometry N", "setting": "Ol1WSCP [1]", "result": 4}, {"measurement": "stoichiometry N", "setting": "Ol1WSCP [2]", "result": 4}]}]}
